Our source for the Kd values is patent US20110250202A1.

For assay [1], the target named is recombinant penicillin binding protein 2a (PBP2a) (Staphylococcus aureus). Description: SPR (BIACORE), rPBP2a coupled on CM5 chip, antibody flowed at 0 to 5 nM; purified antibody.
For assay [2] the target is unchanged. The experiment in a line: SPR (BIACORE), rPBP2a coupled on CM5 chip, antibody flowed at 0 to 5 nM; culture supernatant 1.
Assay [3] has the same target. The experiment in a line: SPR (BIACORE), rPBP2a coupled on CM5 chip, antibody flowed at 0 to 5 nM; culture supernatant 2.

B1: 2G7 antibody (antibody, V domains shown)
VH: EVQLQQSGAELVKPGASVKLSCTASGFNIKDYFIHWVNQRTKQGLEWIGRIDPEDGETKYAPKFQGKATLTADTTSNTADLQLSSLTSEDTAVYYCVLYYSRSFDYWGQGTTLTVSS
VL: QNVLTQSPAIMSASPGEKVTMTCSASSSVSYMHWYQQKSGTSPKRWIYDTSKLASGVPARFSGSGSGTSYSLTISSMEAEDAATYYCQQWSSNPLTFGAGTKLELKR
Turning to B1, the Kd was 1.18 pM in assay [1], 0.204 pM in assay [2] and 0.0022 pM in assay [3].

B2: 3B12 antibody (antibody, V domains shown)
VH: EVQLQQSGAEFVKPGASVKLSCRVSGFNIKDYYINWVKQRTEQGLEWIGRIDPEDGETKYAPKFQGKATITADTSSNTANLHLSSLTSADTAVYYCASSGYAFAWFLYWGQGTLVTVSA
VL: DILLTQSPAILSVSPGERVSFSCRASQSIGTSIHWYQQRTNGSPRLLIKYASESISGIPSRFSGSGSGTDFTLSINSVESEDIADYYCQQSNRWPFTFGSGTKLEIKR
Regarding B2, the dissociation constant Kd was 176 pM in assay [1], 4850 pM in assay [2] and 6050 pM in assay [3].

B3: 2B2 antibody (antibody, V domains shown)
VH: VQLQQSGAEFVKRPGASVKLSCRVSGFNIKDYYINWVKQRTEQGLEWIGRIDPEDGETKYAPKFQGKATITADTSSNTANLHLSSLTSADTAVYYCASSGYAFAWFLYWGQGTLVTVSA
VL: B2 VL
For the molecule B3, the Kd in assay [1] came out at 359 pM; in assay [3], 2150 pM.
